{
  "source": "the DeepSol protein solubility set",
  "data": [
    {"assay": "soluble on expression in E. coli; label from the status in PepcDB or PDB records", "values": [
      {"sequence": "VFIDESKEHLQTCNEKLLLLEKDPTDLQLVHDIFRAAHTLKGMSATMGYTDLAHLTHLLENVLDAIRNGDMEVTSDWLDILFEALDHLETMVQSIIDGGDGKRDISEVSAKLDVNGAHAESAASAEPAEAQSSASDWEYDEFERTVIQEAEEQGFKRYEIKISLNENCMLKAVRVYMVFEKLNEVGEVAKTIPSAEVLETEDFGTDFQVCFLTHQSAEDIEQLINGVSEIEHVEVIQGAPLTSAEKPEESKQEDSPAAAVPANEEKQKQPAKNDEQAKHSAGGSKTIRVNIDRLDSLMNLFEELVIDRGRLEQIAKELEHNELTETVERMTRISGDLQSIILNMRMVPVETVFNRFPRMIRQLQKELNKKIELSIIGAETELDRTVIDEIGDPLVHLIRNSIDHGIEAPETRLQKGKPESGKVVLKAYHSGNHVFIEVEDDGAGLNRKKILEKPLERVITEKEAETLEDNQIYELIFAPGFSTADQISDISGRGVGLDVVKNKLESLGGSVSVKSAEGQGSLFSIQLPLTLSIISVLLIKLEEETFAIPISSIIETAVIDRKDILQTHDREVIDFRGHIVPVVYLKEEFKIEDTRKDAEQLHIIVVKKGDKPTAFVVDSFIGQQEVVLKSLGDYLTNVFAISGATILGDGEVALIID", "soluble on expression in E. coli": "not soluble"},
      {"sequence": "VGTIDQLVKRVIEGSLSPKERTLLKEDPAYWFLSDENSLEYKYYKLKLAEMQR", "soluble on expression in E. coli": "soluble"},
      {"sequence": "VGTRSKSRTRQLKQSNGCTATTSGASDRRRRARRRTAPAWLREDEWLRHHLPHPPRQLSRCLHRRRRSACHHRYSRRTPKGGLPMTSSLVPISEARAHLSRLVRESADDDVVLMNHGRPAAILISAERYESLMEELEDLRDRLSVHEREHVTMPLDKLGAELGVDIGRV", "soluble on expression in E. coli": "not soluble"},
      {"sequence": "VISCDDVPEDLETDHLFSSQMVAVVAPEHELAQREAITFDEFFEHELVMFQHGYFHREFLDHVSEEHGFSMKSSFETNLLPLILSIVRQEFAITALLELVTQNEKGVVGIPFHPPVTLDLALAWRKEGYLSIADRTFIDFVKRYV", "soluble on expression in E. coli": "not soluble"},
      {"sequence": "VKIELTVNGLKIQAQYQNEEIENVHKPLLHMLAALQTVNPQRRTVVFLCAPPGTGKSTLTTFWEYLAQQDPELPAIQTLPMDGFHHYNSWLDAHQLRPFKGAPETFDVAKLTENLRQVVEGDCTWPQYDRQKHDPVEDALHVTAPLVIVEGNWLLLDDEKWLELASFCDFSIFIHAPAQILRERLISRKIAGGLTRQVAEAFYARTDGPNVERVLMNSRQANLIVEMTEEGRYHFTS", "soluble on expression in E. coli": "soluble"},
      {"sequence": "VKLVIDLLGAQTRSHLRGIGRYTRELTKALLRQAGEAHAIHLVLHAPLEQASDALIAEFGALLPRARIHLLRLPRHTSEHLTGNTWRHHAASRLSRYGLTCLDADVVWHSSVFEGYDEDGVLPDAPLFHTNRVATLYDLIPLHDPEVFLPGSLPKAWYERRSAFLSSCDLLFCLSEWTAQEAVQRLHLDPERLVVIGGGVDSNFRPLVFDAQQRGNLLARFSITRPYVLYNGGLDQRKNVPALLRAFALLPMAIRQRHQLVVLGDDREVHRPMMALCRQLGLDQQEVVFTGRVNDSDLVALYGLCALFVFPSRLEGFGLPVLEAMACGAPTLCSDAASLPEVAGRQDILFPPEDHVALSARMSQVLDDPQWLQSLRDYGLRRATAFTWDRVAQRALDALTRLQVRSSEMKSQRVSEVSPATHTETAAPEMLPITEIQLVTDLAALPGDASRDDLAQAAFSICSMRVAPQAPQWLVDVSQIAKTDIGTGTSRVTRSILREWLSTPPPGVCIVPVYLREGQYHYARSFTAQVLGLVSETPQEGIVMVYPGDVFVGLDWAPEAINAARARLQDWRRVGVATCFVVHDLLPMTLPDCFHPYSRNLFEQWLRTVAHLADAIACISATTAEVLSRWLQDTTVDYQFGIPPQVKHFPLGVSFPEVSTAQEAIREELRTALVMRPTLLIVGTLEPRKGHVHALRICEQLWEQGEDVNLVVVGQRGWSEQALVMRLTRHPEVGRRLFWLSDAADAELSALYVHATALLALSEGEGYGLPLLEAAHFRLPILARPLPVFLEIMADYPHYLDGTAPDTWSATVAQWLHASDRPISRPVPIASWKESAQQLADIVNDCRFLLDSKKLSAPLK", "soluble on expression in E. coli": "soluble"},
      {"sequence": "VKRGLKPIVGLNQHIQQISPEQMGIRLDPDSLPIELRELANKHNAMLDRLQTGFRRLSEFSSDIAHELKTPLTNITTQNQVILGACRTSEEYQDAIASTLEELNRITKTINDLLYIAKAENKLIHRHDEVFAVQEEIDRLVAYFEILAEDAEVRIVSSGDGQLYM", "soluble on expression in E. coli": "not soluble"},
      {"sequence": "VLLAIDVRNTHTVVGLLSGMKEHAKVVQQWRIRTESEVTADELALTIDGLIGEDSERLTGTAALSTVPSVLHEVRIMLDQYWPSVPHVLIEPGVRTGIPLLVDNPKEVGADRIVNCLAAYDRFRKAAIVVDFGSSICVDVVSAKGEFLGGAIAPGVQVSSDAAAARSAALRRVELARPRSVVGKNTVECMQAGAVFGFAGLVDGLVGRIREDVSGFSVDHDVAIVATGHTAPLLLPELHTVDHYDQHLTLQGLRLVFERNLEVQRGRLKTAR", "soluble on expression in E. coli": "soluble"},
      {"sequence": "VNFDDIASSENLLHLTANRPKMPGRRLPG", "soluble on expression in E. coli": "soluble"},
      {"sequence": "VNTFSVSRLALALAFGVTLTACSSTPPDQRPSDQTAPGTSSRPILSAKEAQNFDAQHYFASLTPGAAAWNPSPITLPAQPDFVVGPAGTQGVTHTTIQAAVDAAIIKRTNKRQYIAVMPGEYQGTVYVPAAPGGITLYGTGEKPIDVKIGLSLDGGMSPADWRHDVNPRGKYMPGKPAWYMYDSCQSKRSDSIGVLCSAVFWSQNNGLQLQNLTIENTLGDSVDAGNHPAVALRTDGDQVQINNVNILGRQNTFFVTNSGVQNRLETNRQPRTLVTNSYIEGDVDIVSGRGAVVFDNTEFRVVNSRTQQEAYVFAPATLSNIYYGFLAVNSRFNAFGDGVAQLGRSLDVDANTNGQVVIRDSAINEGFNTAKPWADAVISNRPFAGNTGSVDDNDEIQRNLNDTNYNRMWEYNNRGVGSKVVAEAKK", "soluble on expression in E. coli": "soluble"},
      {"sequence": "VPQIDTRDCGPAVLASVAKHYGSNYSIAYLRELSKTNKQGTTALGIVEAAKKLGFETRSIKADMTLFDYNDLTYPFIVHVIKGKRLQHYYVVYGSQNNQLIIGDPDPSVKVTRMSKERFQSEWTGLAIFLAPQPN", "soluble on expression in E. coli": "not soluble"},
      {"sequence": "VPTPKRPRGRPKGSKNKGAAKTRKT", "soluble on expression in E. coli": "soluble"},
      {"sequence": "VQLSPDLLATLPEPASPGRQACGRRHKKRTFLRPRIIGGSSSLPGSHPWLAAIYIGDSFCAGSLVHTCWVVSAAHCFSHSPPRDSVSVVLGQHFFNRTTDVTQTFGIEKYIPYTLYSVFNPSDHDLVLIRLKKKGDRCATRSQFVQPICLPEPGSTFPAGHKCQIAGWGHLDENVSGYSSSLREALVPLVADHKCSSPEVYGADISPNMLCAGYFDCKSDACQGDSGGPLACEKNGVAYLYGIISWGDGCGRLHKPGVYTRVANYVDWINDRIRPPRRLVAPS", "soluble on expression in E. coli": "soluble"},
      {"sequence": "VQTGIDTLLPDYKKQLKGKRIGLITNPAGVNTSLKSSVDILYENPDIKLTALFGPEHGVRGDAQAGDEVGSYIDEKTGVPVYSLYGKTKKPTPEMLKNVDILMFDIQDVGTRFYTYIYTMAYAMEAAKENGIPFMVLDRPNPQGGNHIEGPILEPEYASFVGLYPIPLKHGMTIGELASLFNKEFSIDADLTVVKMKHWKRKMDFDDTRLPFVLPSPNMPTVESTFVYPATGLIEGTNISEGRGTTKPFELIGAPFIKSTELEETLNSLHLPGVTFRAASFTPTFSKHQGTLCHGVQLYVTDRDKFEAVKTGLSVIKTIHDLYPEDFEFLSTGSFDKLAGNGWIRTKIENGTSVENIINSYEKTLQQFSKTRKKYLIY", "soluble on expression in E. coli": "soluble"},
      {"sequence": "VRIPALERGPGLKDLAIFSRQLATMLGAGLTLLQALAILERQTENRKFREILKQVRTDVEGGMAFSEALSKHKIFSRLYVNLVRAGETSGGLDLILDRLASFLEKELELRGKIRSA", "soluble on expression in E. coli": "soluble"},
      {"sequence": "VRLSRFDLAFDIFNRPEIVNLQHIKGGVTHKVFYGRGGELETKYWGSSGSNVQVRLYDKNKEIIAHKREEKLDLGVNPFWWRLEFQLRTKAIGEDMVQDIMNRLDNFGFYKLEHIRVDQRAFTIIFLSNPELLSLAFPNLKSDSIKKKKTRVRKLLREETNQFAEELKEVLIQNLPKLNTELQLLVGEFLTLEN", "soluble on expression in E. coli": "not soluble"},
      {"sequence": "VSAEEQDTRSGGIQVIARAAELLRVLQAHPGGLSQAEIGERVGMARSTVSRILNALEDEGLVASRGARGPYRLGPEITRMATTVRLGVVTEMHPFLTELSRELDETVDLSILDGDRADVVDQVVPPQRLRAVSAVGESFPLYCCANGKALLAALPPERQARALPSRLAPLTANTITDRAALRDELNRIRVDGVAYDREEQTEGICAVGAVLRGVSVELVAVSVPVPAQRFYGREAELAGALLAWVSKVDAWFNGTEDRK", "soluble on expression in E. coli": "not soluble"},
      {"sequence": "VSIYLKPIINKLTPESRNTLDSAINYAISRSHHEVDCLHLLWKLLQEHKYIAEVLYEQSLFNPEWVLNAIESELIRINTVPQSSPVFSESMQTLLEKTWIHASTKWQIDHIDIPVFLSTMINFRDSIFPLNVSDALCCDMDVAEELLISFSDEAEHSASHRPTDRSSHEYLSKYTENLSLRAETGKLDPVTGREKEVRQLIDILLRRRQNNPILTGEPGVGKSSIVEGLALQIASGRVPDVLKNVRIHALDMGALLAGASVRGEFENRLKSLLTELNSLDGTAILFIDEAHSLIGAGGLPGQTDAANLLKPALARGELRIIAATTWGEYKKYFEKDGALARRFQIVKVAEPNQDVTAEMLRSLLPMMEKHHNVSIREEAITATVHLSDRYLHGRRQPDKSVSLLDTACSRVAVSQSTSPDAIQDVEASLVRYQGELALLTQERSDVLRQEMLANKIAQLEEELEQLKSAWRHQSELVAKIQSSDDISSKNMYRKELESAYKKDSPMVFECVDKNCVADVVSGWTGVPLGVCLDGEQQKASGLLRCLEQRVLGQRYAMSAIASQVLICRADLKDPVKPDGVFLLAGPSGTGKTETARALAEFVYGDENKLITINMTEFQEAHTVSTLKGAPPGYVGFGQGGTLTERVSHNPYSVILLDEIEKAHPDVLEFFFQIFDSGIIEDAEGKMVSFRDCLIIMTSNFASENITNIWNDGETNRDRIKEMLLPLFNEHFGAAFMGRTNLIPFTPLHSKTLRDIVLIKIDKICQRFEQASGQMYKIEYNDSLIDWITHHCQCDKSGARDIDSVLNSTVLPVLARYLTDSEDNRTPKKIRISVRKNNITLRSSQFATRN", "soluble on expression in E. coli": "not soluble"},
      {"sequence": "VSTTPAAGVLDTSVFIATESGRQLDEALIPDRVATTVVTLAELRVGVLAAATTDIRAQRLATLESVADMETLPVDDDAARMWARLRIHLAESGRRVRINDLWIAAVAASRALPVITQDDDFAALDGAASVEIIRV", "soluble on expression in E. coli": "not soluble"},
      {"sequence": "VTDLAGTTRLLRAQGVTAPAGFRAAGVAAGIKASGALDLALVFNEGPDYAAAGVFTRNQVKAAPVLWTQQVLTTGRLRAVILNSGGANACTGPAGFADTHATAEAVAAALSDWGTETGAIEVAVCSTGLIGDRLPMDKLLAGVAHVVHEMHGGLVGGDEAAHAIMTTDNVPKQVALHHHDNWTVGGMAKGAGMLAPSLA", "soluble on expression in E. coli": "soluble"},
      {"sequence": "VTGVASAMAERLKEDGNNCFKKERFGAAIDAYTEAIALSPNVPAYWTNRALCHMKRKDWTKVEEDCRKAIQLVHNSVKAHYMLGLALLQKKEFTNGVKELQRALDLGRC", "soluble on expression in E. coli": "not soluble"},
      {"sequence": "VVQAPTQVPGFLGDSVTLPCYLQVPNMEVTHVSQLTWARHGESGSMAVFHQTQGPSYSESKRLEFVAARLGAELRDASLRMFGLRVEDEGSYTCLFVTFPQGSRSVDIWLRVLAKPQNTAEVQKVQLTGEPVPMARCVSTGGRPPAQITWHSDLGGMPQTSQVPGFLSGTVTVTSLWILVPSSQVDGKQVTCKVEHESFEKPQLLTVSLTVYY", "soluble on expression in E. coli": "soluble"}
    ]}
  ]
}
